Among the data in patent publication US20220054583A1 (ANBITION S R L, published 2022) are binding %, fold inhibitory capacity against iVR1 and IC50 values, retold here.

Square brackets hold non-standard residues; d marks the D form. Ends that are not written are not given here. * marks the point of attachment. Met(O2) = CS(=O)(=O)CC[C@H](N)C(=O)O; Cha = N[C@@H](CC1CCCCC1)C(=O)O; Bn = c1ccc(C*)cc1 Bounds are passed on as bounds.

In assay [1] the target is T1, human recombinant receptor VEGFR-1, seven extracellular domains fused to the Fc domain of human IgG (R&D Systems, cat No 321-FL) (human), P17948.
T1 chain: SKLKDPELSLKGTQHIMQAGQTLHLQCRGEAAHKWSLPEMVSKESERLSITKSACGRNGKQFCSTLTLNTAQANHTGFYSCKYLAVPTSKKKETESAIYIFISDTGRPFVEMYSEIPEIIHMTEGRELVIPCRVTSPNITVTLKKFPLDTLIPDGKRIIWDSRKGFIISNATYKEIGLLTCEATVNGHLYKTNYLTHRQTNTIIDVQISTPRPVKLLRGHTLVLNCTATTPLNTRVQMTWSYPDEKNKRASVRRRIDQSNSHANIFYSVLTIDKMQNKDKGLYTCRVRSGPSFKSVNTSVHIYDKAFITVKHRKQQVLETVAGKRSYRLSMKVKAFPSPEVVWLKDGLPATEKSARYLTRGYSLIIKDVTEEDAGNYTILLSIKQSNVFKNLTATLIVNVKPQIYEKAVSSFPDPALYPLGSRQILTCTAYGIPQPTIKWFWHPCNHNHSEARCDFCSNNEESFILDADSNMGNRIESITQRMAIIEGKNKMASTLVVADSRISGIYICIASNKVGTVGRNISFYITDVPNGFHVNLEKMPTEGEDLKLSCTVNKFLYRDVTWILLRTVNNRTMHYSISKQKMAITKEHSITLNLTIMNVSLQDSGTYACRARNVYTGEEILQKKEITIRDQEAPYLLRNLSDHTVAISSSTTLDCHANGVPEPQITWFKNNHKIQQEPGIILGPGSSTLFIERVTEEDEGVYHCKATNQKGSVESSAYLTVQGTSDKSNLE
Nature of the assay: competition ELISA, residual binding of VEGF-A (5 ng/ml) to coated VEGFR-1-Fc, peptide 1560 nM. (In an ELISA, binding on a coated surface is turned into a signal by an enzyme label.)

Assay [2] deals with T1, human recombinant receptor VEGFR-1, …. Nature of the assay: competition ELISA, residual binding of PlGF (5 ng/ml) to coated VEGFR-1-Fc, peptide 6250 nM.
Assay [3] shares this target. Nature of the assay: competition ELISA, residual binding of VEGF-A (5 ng/ml) to coated VEGFR-1-Fc, peptide 6250 nM.
For assay [4] the target is unchanged. Nature of the assay: competition ELISA, residual binding of VEGF-A (5 ng/ml) to coated VEGFR-1-Fc, peptide 25000 nM.
Assay [5] shares this target. Nature of the assay: competition ELISA, residual binding of PlGF (5 ng/ml) to coated VEGFR-1-Fc, peptide 25000 nM.
Assay [6] has the same target. Nature of the assay: competition ELISA, residual binding of PlGF (5 ng/ml) to coated VEGFR-1-Fc, peptide 12500 nM.
The target is the same in assay [7]. Nature of the assay: competition ELISA, residual binding of VEGF-A (5 ng/ml) to coated VEGFR-1-Fc, peptide 50000 nM.
For assay [8] the target is unchanged. Nature of the assay: competition ELISA, residual binding of VEGF-A (5 ng/ml) to coated VEGFR-1-Fc, peptide 3125 nM.
Assay [9] has the same target. Nature of the assay: competition ELISA, PlGF or VEGF-A binding to coated VEGFR-1-Fc; reference iVR1.
Assay [10] shares this target. Nature of the assay: competition ELISA, residual binding of PlGF (5 ng/ml) to coated VEGFR-1-Fc, peptide 1560 nM.
Assay [11] has the same target. Nature of the assay: competition ELISA, residual binding of VEGF-A (5 ng/ml) to coated VEGFR-1-Fc, peptide 12500 nM.
Assay [12] shares this target. Nature of the assay: competition ELISA, PlGF binding to coated VEGFR-1-Fc.
Assay [13] shares this target. Nature of the assay: competition ELISA, residual binding of PlGF (5 ng/ml) to coated VEGFR-1-Fc, peptide 3125 nM.
For assay [14] the target is unchanged. Nature of the assay: competition ELISA, VEGF-A binding to coated VEGFR-1-Fc.
The target is the same in assay [15]. Nature of the assay: competition ELISA, residual binding of PlGF (5 ng/ml) to coated VEGFR-1-Fc, peptide 50000 nM.
The target is the same in assay [16]. Nature of the assay: competition ELISA, residual binding of PlGF (5 ng/ml) to coated VEGFR-1-Fc, peptide 780 nM.
Assay [17] has the same target. Nature of the assay: competition ELISA, residual binding of VEGF-A (5 ng/ml) to coated VEGFR-1-Fc, peptide 780 nM.
The target of assay [18] is T2, human recombinant receptor VEGFR-1, seven extracellular domains fused to the Fc domain of human IgG (R&D … (human, UniProt P17948 27-758)).
T2 construct: Bought reagent; also called Flt-1; not shown: Fc domain of human IgG
Nature of the assay: competition ELISA, VEGF-A binding to coated VEGFR-1-Fc.

B1: iVR1-Cys, tetrameric peptide of formula (IIb) (peptide)
peptide: H-[dE]-Cys(Bn)-[Cha]
chain 1: Lys
chain 2: Lys-[dC]-NH2
modifications: also: branched: four ECX arms on two Z1 Lys, both on Z2 Lys
With B1, the binding % in assay [1] was 43.7%; in [2], 14.1%; in [3], 12.5%; in assay [4] it was 7.99%; in [5], 10.3%; in assay [6], 12.6%. Besides, the binding % amounted to 6.5% in [7]; 21.7% in assay [8]; 35.5% in [10]; 9.81% in assay [11]; 25.5% in assay [13]; 9.18% in [15]. The binding % in assay [16] was 83.8%; in assay [17], 92.3%. For the same molecule, the fold inhibitory capacity against iVR1 in assay [9] was found to be 10 fold. In addition, the IC50 is under 1000 nM in assay [12] and 1000 nM in assay [14].

B2: tetrameric peptide of formula (II) with Y2 = L-methionine sulfone (peptide)
peptide: [dE]-Cys(Bn)-[Cha]
chain 1: Lys
chain 2: Lys-[Met(O2)]
modifications: also: tetrameric: four tripeptide arms on two Z1 lysines, carried on Z2 lysine
notes: Variant of iVR1-Cys with another Y2; only Y2 is printed
As to B2, the 50% inhibitory concentration (IC50) in assay [18] stood at 4620 nM.

B3: iVR1, tetrameric peptide of formula (IIc) (peptide)
peptide: H-[dE]-Cys(Bn)-[Cha]
chain 1: Lys
chain 2: Lys-Gly-NH2
modifications: also: branched: four ECX arms on two Z1 Lys, both on Z2 Lys
Regarding B3, the binding % was determined as 96.2% in assay [1]; 68.5% in assay [2]; 66% in [3]; 21.4% in assay [4]; 36% in assay [5]; 44.6% in assay [6]. The binding % in assay [7] was 8.6%; in [8] it was 93.9%; in assay [10], 101%; in assay [11] it was 37%; in assay [13] it was 96.1%; in assay [15] it was 26.3%. For the same molecule, the binding % in [16] turned out to be 99.4%; in assay [17] it was 98.4%. Moreover, the IC50 in [12] and in assay [14] was 10000 nM in each case.

B4: tetrameric peptide of formula (II) with Y2 = D-serine (peptide)
peptide: [dE]-Cys(Bn)-[Cha]
chain 1: Lys
chain 2: Lys-[dS]
modifications: also: tetrameric: four tripeptide arms on two Z1 lysines, carried on Z2 lysine
notes: as for B2
With B4, the IC50 in assay [18] came out at 2430 nM.

B5: tetrameric peptide of formula (II) with Y2 = L-cysteine (peptide)
peptide: [dE]-Cys(Bn)-[Cha]
chain 1: Lys
chain 2: Lys-Cys
modifications: also: tetrameric: four tripeptide arms on two Z1 lysines, carried on Z2 lysine
notes: Variant of iVR1-Cys with another Y2
B5: in assay [18], the IC50 was found to be 2030 nM.

What is called IC50 is the concentration needed to halve the response being measured.
